The values that follow come from PMC12772213.

Test [1] deals with Actin filaments (rabbit skeletal muscle actin) (rabbit) (UniProt P68135).
The target is the same in test [2]. The test can be described thus: three-bead optical trap; isometric feedback (hindering load); detachment rate vs. force fitted to the Bell equation, interactions >10 pN excluded; cHMM held through antibody to the S2Tag; 20 °C.
The target is the same in test [3]. Nature of the test: three-bead optical trap; pedestal bead stage feedback; time between single actomyosin interactions at saturating (2 mM) ATP, double-exponential distribution; cHMM held through antibody to the S2Tag; 20 °C.
For test [4] the target is unchanged. Nature of the test: three-bead optical trap; unloaded; cHMM held on pedestal beads through antibody to the S2Tag, actin filament suspended between two trapped beads; 1 µM MgATP; 20 °C; 60 mM MOPS, 25 mM KCl, 1 mM DTT, 1 mM MgCl2, 1 mM EGTA; single-molecule events by bead covariance.
Test [5] shares this target. The test can be described thus: three-bead optical trap; unloaded; cHMM held on pedestal beads through antibody to the S2Tag, actin filament suspended between two trapped beads; 2 mM MgATP; 20 °C; 60 mM MOPS, 25 mM KCl, 1 mM DTT, 1 mM MgCl2, 1 mM EGTA; single-molecule events by bead covariance.
For test [6], the target named is Pyrene-actin (rabbit) (UniProt P68135). The test can be described thus: stopped-flow pyrene-actin fluorescence; myosin heads (apyrase-treated) mixed with equimolar pyrene-actin 10 min at RT in KMg25 buffer (60 mM MOPS pH 7, 25 mM KCl, 1 mM EGTA, 1 mM MgCl2, 1 mM DTT), then mixed with ATP; ATP-induced dissociation followed by pyrene fluorescence.
For test [7], the target named is Actin filaments (rabbit skeletal muscle actin) (rabbit) (UniProt P68135). The test can be described thus: three-bead optical trap; isometric feedback (hindering load); detachment rate vs. force fitted to the Bell equation, interactions >10 pN excluded; cHMM held through antibody to the S2Tag; 20 °C. The source holds these as a separate data set.

Like-named read-outs stand apart in the source and are kept apart here.

“Human β-cardiac myosin HMM M493I mutant (M493I-cHMM) (from UniProt P12883 1-1935; P05977 1-188; P97457 1-169) (complex)” yielded an Actin gliding velocity (in vitro gliding assay, cHMM held through S2Tag antibody, rhodamine-phalloidin labeled actin, 32 °C) in test [1] of 0.46 µm/s. For the same substance, in test [2], the Bell equation k0 (detachment rate at zero force) came out at 12.9 s⁻¹. Also, in test [3], the actin reattachment rate in optical trap (fast) stood at 23 s⁻¹ and the actin reattachment rate in optical trap (slow) was determined as 1.62 s⁻¹. The substance also returned a k detach (1 μM ATP) in test [4] of 6.26 s⁻¹. The substance also displayed a k detach (2 mM ATP) in test [5] of 12.1 s⁻¹. Moreover, the maximum rate of ATP-induced dissociation of actomyosin in test [6] was 340 s⁻¹.
Consider “Human β-cardiac myosin wild type HMM (WT-cHMM) (from UniProt P12883 1-1935; P05977 1-188; P97457 1-169) (complex)”, for which, in test [1], the Actin gliding velocity (in vitro gliding assay, cHMM held through S2Tag antibody, rhodamine-phalloidin labeled actin, 32 °C) was 1.6 µm/s. The substance also displayed a Bell equation k0 (detachment rate at zero force) in test [2] of 32.9 s⁻¹. Besides, in test [7], the Bell equation k0 (detachment rate at zero force) was 32 s⁻¹. Moreover, in test [3], the actin reattachment rate in optical trap (fast) turned out to be 17 s⁻¹ and the actin reattachment rate in optical trap (slow) amounted to 0.83 s⁻¹. The substance further had a k detach (1 μM ATP) in test [4] of 6.09 s⁻¹. Moreover, the k detach (2 mM ATP) in test [5] was determined as 58.5 s⁻¹.
